Earlier results, collected in patent US20250326839A1, “TREATMENT OF DISEASES RELATED TO COLONY-STIMULATING FACTOR 1 RECEPTOR DYSFUNCTION USING TREM2 AGONISTS” (Vigil Neuroscience, Inc., priority 2020, published 2025).
Changes are numbered by the printed parent chain. In names and notes the source's numbering stands. Marks after values point to notes of the source that are not given here.

T1: TREM2 (Homo sapiens, UniProt Q9NZC2)
T1 sequence (Q9NZC2 19-230): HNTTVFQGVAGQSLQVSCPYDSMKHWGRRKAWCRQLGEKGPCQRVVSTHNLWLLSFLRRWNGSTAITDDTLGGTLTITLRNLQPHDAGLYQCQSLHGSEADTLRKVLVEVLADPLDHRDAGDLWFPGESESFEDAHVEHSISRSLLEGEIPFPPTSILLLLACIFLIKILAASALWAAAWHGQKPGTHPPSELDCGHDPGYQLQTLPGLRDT

B1: V87: 6E7 variant: VH T30R, T58V, S63D, Q99S; VL N56W (antibody, V domains shown)
VH: EVQLVQSGAEVKKPGESLKISCKGSGYSFRSYWIAWVRQMPGKGLEWMGIIYPGDSDVRYSPDFQGQVTISADKSISTAYLQWSSLKASDTAMYFCARSRTFYYDSSDYFDYWGQGTLVTVSS
VL: DIQMTQSPSSVSASVGDRVTITCRASQGISSWLAWYQQKPGKAPKLLIYAASSLQWGVPSRFSGSGSGTDFTLTISSLQPEDFATYFCQQADSFPRTFGQGTKLEIK
B2: V14: 6E7 variant: VH T30G, S56Q, Q99G; VL S53R (antibody, V domains shown)
VH: B1 VH with R30G, S56Q, V58T, D63S, S99G
VL: B1 VL with S53R, W56N
B3: V27: 6E7 variant: VH S61A, Q99S; VL N56R (antibody, V domains shown)
VH: B1 VH with R30T, V58T, S61A, D63S, A97V
VL: B1 VL with W56R
B4: V37: 6E7 variant: VH F29H, Q65A, Q99S; VL N56W, F94Y (antibody, V domains shown)
VH: B1 VH with F29H, R30T, V58T, D63S, Q65A
VL: B1 VL with F94Y
B5: V25: 6E7 variant: VH T30G, I50L, Q99S; VL Q55A, F94M (antibody, V domains shown)
VH: B1 VH with R30G, I50L, V58T, D63S
VL: B1 VL with Q55A, W56N, F94M
B6: V40: 6E7 variant: VH T30G, T58V, F110S; VL N56L, S93R (antibody, V domains shown)
VH: B1 VH with R30G, D63S, S99Q, F110S
VL: B1 VL with W56L, S93R
B7: V13: 6E7 variant: VH T30G, P62A, Q99G; VL N56G, F94M (antibody, V domains shown)
VH: B1 VH with R30G, V58T, P62A, D63S, S99G
VL: B1 VL with W56G, F94M
B8: V38: 6E7 variant: VH T30G, T58V; VL L54R, F94H (antibody, V domains shown)
VH: B1 VH with R30G, D63S, S99Q
VL: B1 VL with L54R, W56N, F94H
B9: V16: 6E7 variant: VH F29M, S56G, Q99S; VL S53N (antibody, V domains shown)
VH: B1 VH with F29M, R30T, S56G, V58T, D63S
VL: B1 VL with S53N, W56N
B10: V48: 6E7 variant: VH T30G, T58V, Q99M; VL N56T, F94L (antibody, V domains shown)
VH: B1 VH with R30G, D63S, S99M
VL: B1 VL with W56T, F94L
B11: V26: 6E7 variant: VH A35G, I50T, F102M, Y112A; VL N56R, F94Y (antibody, V domains shown)
VH: B1 VH with R30T, A35G, I50T, V58T, D63S, S99Q, F102M, Y112A
VL: B1 VL with W56R, F94Y
B12: V36: 6E7 variant: VH I34L, Q99S; VL L54R, F94Y (antibody, V domains shown)
VH: B1 VH with R30T, I34L, V58T, D63S
VL: B1 VL with L54R, W56N, F94Y
B13: V88: 6E7 variant: VH T30G; VL S53R, N56R, F94S (antibody, V domains shown)
VH: B1 VH with R30G, V58T, D63S, S99Q
VL: B1 VL with S53R, W56R, F94S
B14: V15: 6E7 variant: VH T30A, I50T, Q99S; VL S53W, F94Y (antibody, V domains shown)
VH: B1 VH with R30A, I50T, V58T, D63S
VL: B1 VL with S53W, W56N, F94Y
B15: V39: 6E7 variant: VH T30G, S61N, Q99G; VL Q55V, F94S (antibody, V domains shown)
VH: B1 VH with R30G, V58T, S61N, D63S, S99G
VL: B1 VL with Q55V, W56N, F94S
B16: V24: 6E7 variant: VH T58V, Q99S; VL N56K, R96H (antibody, V domains shown)
VH: B1 VH with R30T, D63S
VL: B1 VL with W56K, R96H
B17: V28: 6E7 variant: VH T30Q, I50T, Y103F; VL N56S, F94L (antibody, V domains shown)
VH: B1 VH with R30Q, I50T, V58T, D63S, S99Q, Y103F
VL: B1 VL with W56S, F94L
B18: V17: 6E7 variant: VH T30G, Q99S; VL L54R, F94S (antibody, V domains shown)
VH: B1 VH with R30G, V58T, D63S
VL: B1 VL with L54R, W56N, F94S
B19: V90: 6E7 variant: VH Y32E; VL S31R (antibody, V domains shown)
VH: B1 VH with R30T, Y32E, V58T, D63S, S99Q
VL: B1 VL with S31R, W56N

Molecular target: T1, TREM2
Conditions: 1st screen, 10 nM Ab concentration (values not marked *); cited from earlier work

Molecule | Binding Signal (fold over 6E7 parental antibody) 1st screen 110 nM or 10 nM
B1 | 3.84 fold over 6E7 parental antibod
B2 | 4.71 fold over 6E7 parental antibod
B3 | 5.50 fold over 6E7 parental antibod
B4 | 3.46 fold over 6E7 parental antibod
B5 | 4.23 fold over 6E7 parental antibod
B6 | 4.48 fold over 6E7 parental antibod
B7 | 1.31 fold over 6E7 parental antibod
B8 | 4.34 fold over 6E7 parental antibod
B9 | 4.01 fold over 6E7 parental antibod
B10 | 2.42 fold over 6E7 parental antibod
B11 | 3.57 fold over 6E7 parental antibod
B12 | 3.38 fold over 6E7 parental antibod
B13 | 4.92 fold over 6E7 parental antibod
B14 | 5.23 fold over 6E7 parental antibod
B15 | 6.15 fold over 6E7 parental antibod
B16 | 2.64 fold over 6E7 parental antibod
B17 | 3.08 fold over 6E7 parental antibod
B18 | 5.37 fold over 6E7 parental antibod

Same assay, conditions: 1st screen, 110 nM Ab concentration (values marked *); cited from earlier work

Molecule | Binding Signal (fold over 6E7 parental antibody) 1st screen 110 nM or 10 nM
B19 | 0.33* fold over 6E7 parental antibod

Same assay, conditions: 2nd screen, 2 nM; cited from earlier work

Molecule | Binding Signal (fold over 6E7 parental antibody) 2nd screen 2 nM
B1 | 4.86 fold over 6E7 parental antibod
B2 | 2.57 fold over 6E7 parental antibod
B3 | 5.67 fold over 6E7 parental antibod
B4 | 3.69 fold over 6E7 parental antibod
B5 | 3.15 fold over 6E7 parental antibod
B6 | 3.41 fold over 6E7 parental antibod
B7 | 1.15 fold over 6E7 parental antibod
B8 | 3.44 fold over 6E7 parental antibod
B9 | 3.57 fold over 6E7 parental antibod
B10 | 2.30 fold over 6E7 parental antibod
B11 | 2.83 fold over 6E7 parental antibod
B12 | 4.00 fold over 6E7 parental antibod
B13 | 5.57 fold over 6E7 parental antibod
B14 | 4.72 fold over 6E7 parental antibod
B15 | 5.11 fold over 6E7 parental antibod
B16 | 1.42 fold over 6E7 parental antibod
B17 | 2.63 fold over 6E7 parental antibod
B18 | 4.22 fold over 6E7 parental antibod

Same assay, conditions: 2nd screen, 10 nM; cited from earlier work

Molecule | Binding Signal (fold over 6E7 parental antibody) 2nd screen 10 nM
B1 | 3.93 fold over 6E7 parental antibod
B2 | 4.64 fold over 6E7 parental antibod
B3 | 5.69 fold over 6E7 parental antibod
B4 | 3.49 fold over 6E7 parental antibod
B5 | 4.70 fold over 6E7 parental antibod
B6 | 4.16 fold over 6E7 parental antibod
B7 | 1.35 fold over 6E7 parental antibod
B8 | 4.36 fold over 6E7 parental antibod
B9 | 4.04 fold over 6E7 parental antibod
B10 | 2.54 fold over 6E7 parental antibod
B11 | 3.47 fold over 6E7 parental antibod
B12 | 3.44 fold over 6E7 parental antibod
B13 | 5.30 fold over 6E7 parental antibod
B14 | 4.78 fold over 6E7 parental antibod
B15 | 5.81 fold over 6E7 parental antibod
B16 | 2.90 fold over 6E7 parental antibod
B17 | 3.61 fold over 6E7 parental antibod
B18 | 5.51 fold over 6E7 parental antibod

Same assay, conditions: 2nd screen, 100 nM; cited from earlier work

Molecule | Binding Signal (fold over 6E7 parental antibody) 2nd screen 100 nM
B19 | 0.36 fold over 6E7 parental antibod
